Positions count from the first letter of the chain named.
T1: dectin-2 (UniProt Q6EIG7 46-209)
T1 construct: also called dec-2
T1 sequence (looked up): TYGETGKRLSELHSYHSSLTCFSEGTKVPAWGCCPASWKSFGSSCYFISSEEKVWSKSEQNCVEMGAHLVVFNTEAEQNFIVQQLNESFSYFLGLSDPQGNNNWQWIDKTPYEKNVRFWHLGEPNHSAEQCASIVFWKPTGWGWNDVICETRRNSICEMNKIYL

T2: dectin-1 (UniProt Q9BXN2-2 66-201)
T2 construct: also called dec-1
T2 sequence (looked up): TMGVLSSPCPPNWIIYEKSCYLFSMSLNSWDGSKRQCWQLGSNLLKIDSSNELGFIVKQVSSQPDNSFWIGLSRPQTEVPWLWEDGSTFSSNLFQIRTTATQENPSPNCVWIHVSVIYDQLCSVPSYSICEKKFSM

T3: clec-4d (UniProt Q8WXI8 39-215)
T3 sequence (looked up): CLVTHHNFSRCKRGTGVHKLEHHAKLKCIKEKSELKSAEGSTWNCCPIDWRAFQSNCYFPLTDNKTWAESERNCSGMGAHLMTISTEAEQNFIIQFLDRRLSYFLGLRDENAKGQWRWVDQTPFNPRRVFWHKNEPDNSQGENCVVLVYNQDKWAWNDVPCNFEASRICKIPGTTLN

T4: MMR (UniProt P22897 19-1383)
T4 sequence (looked up): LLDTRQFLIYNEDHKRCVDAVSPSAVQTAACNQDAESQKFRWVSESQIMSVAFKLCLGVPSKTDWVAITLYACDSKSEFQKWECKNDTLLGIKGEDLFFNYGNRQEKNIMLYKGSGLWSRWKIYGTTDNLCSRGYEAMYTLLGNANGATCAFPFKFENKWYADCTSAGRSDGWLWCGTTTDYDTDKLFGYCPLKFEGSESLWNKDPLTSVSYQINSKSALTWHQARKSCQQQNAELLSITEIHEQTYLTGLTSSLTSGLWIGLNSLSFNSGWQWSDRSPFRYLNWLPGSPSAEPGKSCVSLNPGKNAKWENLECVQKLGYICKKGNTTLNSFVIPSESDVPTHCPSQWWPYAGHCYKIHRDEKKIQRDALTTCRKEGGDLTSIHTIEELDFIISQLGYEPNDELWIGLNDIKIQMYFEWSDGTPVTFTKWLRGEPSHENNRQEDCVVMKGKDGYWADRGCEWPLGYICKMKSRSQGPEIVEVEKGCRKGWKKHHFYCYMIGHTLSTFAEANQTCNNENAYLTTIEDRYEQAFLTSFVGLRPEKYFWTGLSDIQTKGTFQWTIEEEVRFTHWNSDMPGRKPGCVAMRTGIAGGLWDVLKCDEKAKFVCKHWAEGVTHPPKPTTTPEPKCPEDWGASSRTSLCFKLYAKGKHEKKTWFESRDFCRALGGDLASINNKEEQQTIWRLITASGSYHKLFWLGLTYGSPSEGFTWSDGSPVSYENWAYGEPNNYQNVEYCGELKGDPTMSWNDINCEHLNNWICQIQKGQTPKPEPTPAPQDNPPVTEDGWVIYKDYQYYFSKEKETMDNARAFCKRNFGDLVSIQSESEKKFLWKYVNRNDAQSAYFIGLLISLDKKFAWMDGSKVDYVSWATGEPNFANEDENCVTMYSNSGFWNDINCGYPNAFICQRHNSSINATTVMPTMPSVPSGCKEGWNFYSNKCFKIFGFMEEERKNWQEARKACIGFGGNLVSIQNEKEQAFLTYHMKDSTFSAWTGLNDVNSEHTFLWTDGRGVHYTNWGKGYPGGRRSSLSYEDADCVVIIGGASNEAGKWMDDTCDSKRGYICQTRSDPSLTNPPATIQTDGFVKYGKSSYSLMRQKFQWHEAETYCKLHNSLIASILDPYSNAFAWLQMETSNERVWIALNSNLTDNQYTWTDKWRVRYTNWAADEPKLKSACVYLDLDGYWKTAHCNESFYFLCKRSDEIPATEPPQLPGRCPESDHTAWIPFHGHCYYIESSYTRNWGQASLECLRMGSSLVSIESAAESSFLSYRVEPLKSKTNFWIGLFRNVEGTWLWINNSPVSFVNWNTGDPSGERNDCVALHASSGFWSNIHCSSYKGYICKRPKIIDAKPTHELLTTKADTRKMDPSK

T5: Siglec-4 (UniProt P20916 20-516)
T5 construct: also called MAG
T5 sequence (looked up): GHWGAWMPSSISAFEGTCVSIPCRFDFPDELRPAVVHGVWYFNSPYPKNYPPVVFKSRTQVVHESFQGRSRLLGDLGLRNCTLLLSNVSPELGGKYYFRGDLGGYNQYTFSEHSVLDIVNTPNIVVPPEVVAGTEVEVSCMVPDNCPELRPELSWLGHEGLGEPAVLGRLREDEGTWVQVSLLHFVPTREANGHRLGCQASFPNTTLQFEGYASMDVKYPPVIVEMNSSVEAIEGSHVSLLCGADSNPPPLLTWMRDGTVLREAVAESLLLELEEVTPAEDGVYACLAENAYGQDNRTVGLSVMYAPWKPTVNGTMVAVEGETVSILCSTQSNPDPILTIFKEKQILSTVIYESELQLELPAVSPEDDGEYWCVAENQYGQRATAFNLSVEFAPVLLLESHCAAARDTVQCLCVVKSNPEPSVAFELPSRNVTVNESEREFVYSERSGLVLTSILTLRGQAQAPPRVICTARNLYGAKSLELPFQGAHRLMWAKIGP

T6: clec-4a (UniProt Q9UMR7 70-237)
T6 construct: also called DCIR
T6 sequence (looked up): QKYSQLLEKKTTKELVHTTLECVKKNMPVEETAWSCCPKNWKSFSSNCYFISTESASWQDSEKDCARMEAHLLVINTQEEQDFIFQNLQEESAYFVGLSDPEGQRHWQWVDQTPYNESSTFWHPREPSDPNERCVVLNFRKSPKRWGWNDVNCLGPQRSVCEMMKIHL

T7: tetrameric human DC-SIGN (human, UniProt Q9NNX6 66-404)
T7 sequence (looked up): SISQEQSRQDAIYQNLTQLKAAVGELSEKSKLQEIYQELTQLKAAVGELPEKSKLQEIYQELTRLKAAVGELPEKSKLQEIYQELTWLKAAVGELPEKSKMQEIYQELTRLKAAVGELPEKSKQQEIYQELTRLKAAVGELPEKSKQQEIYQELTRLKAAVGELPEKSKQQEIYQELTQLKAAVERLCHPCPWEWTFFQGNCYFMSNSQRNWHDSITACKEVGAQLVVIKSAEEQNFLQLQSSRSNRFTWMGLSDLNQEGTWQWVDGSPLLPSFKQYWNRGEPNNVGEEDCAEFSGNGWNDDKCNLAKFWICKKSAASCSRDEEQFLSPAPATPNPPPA

T8: human FcγRIIB (human, UniProt P31994 46-217)
T8 construct: also called CD32B
T8 sequence (looked up): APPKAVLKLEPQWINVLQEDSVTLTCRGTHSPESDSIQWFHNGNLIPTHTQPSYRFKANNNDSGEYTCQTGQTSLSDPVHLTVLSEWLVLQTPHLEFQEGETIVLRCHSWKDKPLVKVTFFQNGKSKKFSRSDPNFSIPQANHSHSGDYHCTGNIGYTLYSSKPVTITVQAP

T9: CD23 (UniProt P06734 48-321)
T9 sequence (looked up): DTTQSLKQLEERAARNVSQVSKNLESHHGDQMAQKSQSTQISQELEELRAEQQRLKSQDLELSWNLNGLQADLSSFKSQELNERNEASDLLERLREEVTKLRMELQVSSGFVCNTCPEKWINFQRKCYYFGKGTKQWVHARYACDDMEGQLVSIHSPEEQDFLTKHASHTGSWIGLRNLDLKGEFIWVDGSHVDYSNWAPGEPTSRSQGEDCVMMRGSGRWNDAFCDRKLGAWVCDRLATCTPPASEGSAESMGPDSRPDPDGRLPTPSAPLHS

T10: human FcγRIIA (human, UniProt P12318 36-218)
T10 sequence (looked up): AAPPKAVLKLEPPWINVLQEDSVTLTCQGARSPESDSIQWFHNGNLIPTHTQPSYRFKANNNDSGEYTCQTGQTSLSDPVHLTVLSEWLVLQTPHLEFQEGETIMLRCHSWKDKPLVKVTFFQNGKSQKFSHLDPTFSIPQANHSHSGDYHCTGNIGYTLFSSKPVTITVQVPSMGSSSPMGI

B1: [change]/[change] (other)
chain: DKTHTCPPCPAPELLGGPSVFLFPPKPKDTLMISRTPEVTCVVVDVSHEDPEVKFNWYVDGVEVHNAKTKPREEQYASTYRVVSVLTVCLQDWLNGKEYKCKVSNKALPAPIEKTISKAKGQPREPQVYTLPPSREEMTKNQVSLTCLVKGFYPSDIAVEWESNGQPENNYKTTPPVLDSDGSFFLYSKLTVDKSRWQQGNVFSCSVMHEALHNHYTQKSLSLSPGKLVLGPPLYNVSLVMSDTAGTAY
B2: [change]/[change]/[change] (other)
chain: B1 chain with N236A
B3: [change]/[change]/[change] (other)
chain: B1 chain with D1N
B4: [change]/[change] (other)
chain: B1 chain with D1N, A77N
B5: [change]/[change]/[change] (other)
chain: B1 chain with D1N, A77N, N236A
B6: [change]/[change]/[change]/[change] (other)
chain: B1 chain with D1N, N236A

Key:
Assay in all cases: ELISA
dectin-2 = biological target: T1, dectin-2
dectin-1 = biological target: T2, dectin-1
Siglec-3 = Siglec-3 (UniProt P20138 18-259)
Sequence of Siglec-3 (P20138 18-259 limits assumed): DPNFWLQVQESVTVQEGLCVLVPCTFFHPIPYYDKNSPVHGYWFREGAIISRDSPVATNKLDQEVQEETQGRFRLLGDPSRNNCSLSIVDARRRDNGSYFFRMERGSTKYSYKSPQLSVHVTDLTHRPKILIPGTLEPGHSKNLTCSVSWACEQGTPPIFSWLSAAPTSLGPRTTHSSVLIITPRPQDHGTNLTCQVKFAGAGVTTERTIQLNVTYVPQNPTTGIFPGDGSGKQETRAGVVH

clec-4d = biological target: T3, clec-4d
MMR = biological target: T4, MMR
Siglec-2 = biological target: T11, Siglec-2 (UniProt P20273 20-687)
T11 construct: also called CD22

Siglec-4 = biological target: T5, Siglec-4
clec-4a = biological target: T6, clec-4a
tetrameric human DC-SIGN = biological target: T7, tetrameric human DC-SIGN
MBL = MBL (UniProt P11226 21-248)
Sequence of MBL (P11226 21-248 limits assumed): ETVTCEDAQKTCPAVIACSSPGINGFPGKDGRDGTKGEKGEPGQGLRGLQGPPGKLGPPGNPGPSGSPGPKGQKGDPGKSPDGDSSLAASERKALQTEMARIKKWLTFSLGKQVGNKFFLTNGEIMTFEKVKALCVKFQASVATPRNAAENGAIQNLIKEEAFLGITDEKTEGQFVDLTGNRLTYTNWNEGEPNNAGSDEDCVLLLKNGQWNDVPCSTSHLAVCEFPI

C1q = C1q (UniProt P02745 23-245; P02746 28-253; P02747 29-245)
Sequence of C1q (P02745 23-245, chain 1 of 3): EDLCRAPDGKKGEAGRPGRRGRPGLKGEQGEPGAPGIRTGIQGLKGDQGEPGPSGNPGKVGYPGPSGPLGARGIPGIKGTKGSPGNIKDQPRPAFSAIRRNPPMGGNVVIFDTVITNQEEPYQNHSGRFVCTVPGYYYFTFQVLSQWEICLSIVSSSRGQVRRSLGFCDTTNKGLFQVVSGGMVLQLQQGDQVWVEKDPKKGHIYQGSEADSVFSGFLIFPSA
Sequence of C1q (P02746 28-253, chain 2 of 3): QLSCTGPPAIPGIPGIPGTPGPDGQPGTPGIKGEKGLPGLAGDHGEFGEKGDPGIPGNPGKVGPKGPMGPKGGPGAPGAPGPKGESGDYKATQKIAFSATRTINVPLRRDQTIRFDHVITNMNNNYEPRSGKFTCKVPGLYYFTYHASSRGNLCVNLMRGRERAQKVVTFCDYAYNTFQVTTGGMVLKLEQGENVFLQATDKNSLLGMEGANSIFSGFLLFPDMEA
Sequence of C1q (P02747 29-245, chain 3 of 3): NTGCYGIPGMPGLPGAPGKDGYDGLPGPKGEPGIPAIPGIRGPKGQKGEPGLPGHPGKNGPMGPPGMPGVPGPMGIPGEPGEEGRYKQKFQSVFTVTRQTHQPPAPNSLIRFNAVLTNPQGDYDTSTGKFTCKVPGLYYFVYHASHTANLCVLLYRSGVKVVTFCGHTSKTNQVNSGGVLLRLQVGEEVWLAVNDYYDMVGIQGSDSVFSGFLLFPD

human FcγRIIIA = human FcγRIIIA (human, UniProt P08637 17-208)
Sequence of human FcγRIIIA (P08637 17-208 limits assumed): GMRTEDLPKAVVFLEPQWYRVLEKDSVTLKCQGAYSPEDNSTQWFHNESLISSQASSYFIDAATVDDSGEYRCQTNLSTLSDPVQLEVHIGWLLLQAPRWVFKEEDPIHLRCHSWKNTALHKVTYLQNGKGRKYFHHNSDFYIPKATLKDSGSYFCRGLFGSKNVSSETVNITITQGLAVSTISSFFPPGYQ

human FcγRIIB = biological target: T8, human FcγRIIB
CD23 = biological target: T9, CD23
human FcγRIIA = biological target: T10, human FcγRIIA
human FcγRIIIB = human FcγRIIIB (human, UniProt O75015 17-200)
Sequence of human FcγRIIIB (O75015 17-200 limits assumed): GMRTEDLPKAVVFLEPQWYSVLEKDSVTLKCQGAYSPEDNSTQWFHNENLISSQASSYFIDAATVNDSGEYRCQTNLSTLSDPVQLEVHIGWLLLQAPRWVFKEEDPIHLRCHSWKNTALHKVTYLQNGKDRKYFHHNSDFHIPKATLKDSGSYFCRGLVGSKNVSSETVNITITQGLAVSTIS

Row | Binder | binding result (dectin-2) | binding result (dectin-1) | binding result (Siglec-3) | binding result (clec-4d) | binding result (MMR) | binding result (Siglec-2) | binding result (Siglec-4) | binding result (clec-4a) | binding result (tetrameric human DC-SIGN) | binding result (MBL) | binding result (C1q) | binding result (human FcγRIIIA) | binding result (human FcγRIIB) | binding result (CD23) | binding result (human FcγRIIA) | binding result (human FcγRIIIB)
1 | B1 | no binding | no binding | no binding | no binding | no binding | no binding | no binding | no binding | no binding | no binding | no binding | no binding | no binding | – | – | –
2 | B2 | – | – | no binding | no binding | – | – | – | no binding | binds | – | – | no binding | binds | no binding | – | –
3 | B3 | no binding | no binding | no binding | no binding | no binding | no binding | no binding | no binding | no binding | no binding | no binding | no binding | no binding | – | – | –
4 | B4 | no binding | no binding | no binding | no binding | no binding | – | – | no binding | no binding | no binding | no binding | no binding | – | – | – | –
5 | B5 | – | no binding | no binding | no binding | no binding | no binding | – | no binding | no binding | no binding | – | binds | no binding | no binding | – | –
6 | B6 | – | no binding | – | – | no binding | – | – | no binding | no binding | no binding | – | no binding | no binding | – | no binding | no binding

Source: patent publication US20210024615A1 (LIVERPOOL SCHOOL OF TROPICAL MEDICINE, published 2021)
